Patent publication US20250206818A1 (AGENUS, published 2025)
Changes are numbered by the printed parent chain.

T1: recombinant human LAG-3 (human, UniProt P18627 23-450, limits assumed)
T1 sequence (looked up): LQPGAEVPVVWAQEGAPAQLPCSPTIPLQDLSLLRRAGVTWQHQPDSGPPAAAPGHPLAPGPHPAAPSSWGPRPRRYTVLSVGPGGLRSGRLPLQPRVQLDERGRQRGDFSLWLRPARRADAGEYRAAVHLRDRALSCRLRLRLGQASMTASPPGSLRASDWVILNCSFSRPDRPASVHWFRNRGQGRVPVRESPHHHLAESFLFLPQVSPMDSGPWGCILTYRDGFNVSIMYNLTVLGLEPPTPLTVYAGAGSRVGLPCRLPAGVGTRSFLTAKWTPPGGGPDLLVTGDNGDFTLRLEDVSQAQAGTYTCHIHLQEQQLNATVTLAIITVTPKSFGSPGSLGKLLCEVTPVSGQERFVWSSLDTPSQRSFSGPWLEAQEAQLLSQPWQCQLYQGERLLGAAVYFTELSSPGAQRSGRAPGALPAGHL

B1: P13B02-12 (antibody, IgG1, V domains shown)
VH: QVQLVQSGAEVKKPGASVKVSCKASGFNIKDTYIHWVRQAPGQGLEWMGEIDPANDNTKYDPKFQGRVTITADTSSNTVYMELSSLRSEDTAVYYCATYYYRYDVGGFDYWGQGTLVTVSS
VL: EIVLTQSPGTLSLSPGERATLSCSVSSSISSSNLHWYQQKPGQAPRLLIYGTSNLASGIPDRFSGSGSGTSYTLTISRLEPEDFAVYYCQQWSSYPFTFGQGTKVEIK
notes: Humanized; generated as full length IgG1
B2: P13B02-15 (antibody, IgG1, V domains shown)
VH: B1 VH
VL: B1 VL with V3L, S22T, Y37F, A44S, L48W, I59V
notes: as for B1
B3: P13B02-19 (antibody, IgG1, V domains shown)
VH: B1 VH with L4M, V5K, K23T
VL: B1 VL with V3L, Y37F, L48W, I59V
notes: as for B1
B4: P13B02-04 (antibody, IgG1, V domains shown)
VH: B1 VH with I70M, A72R, S76T, N77S, T98R
VL: B1 VL with V3L, Y37F, L48W, I59V
notes: as for B1
B5: P13B02-02 (antibody, IgG1, V domains shown)
VH: B1 VH with I70M, A72R, S76T, N77S, T98R
VL: B1 VL
notes: as for B1
B6: P13B02-09 (antibody, IgG1, V domains shown)
VH: B1 VH with S76T, N77S
VL: B1 VL with V3L, Y37F, L48W, I59V
notes: as for B1
B7: P13B02-17 (antibody, IgG1, V domains shown)
VH: B1 VH with L4M, V5K, K23T
VL: B1 VL
notes: as for B1
B8: P13B02-18 (antibody, IgG1, V domains shown)
VH: B1 VH with L4M, V5K, K23T
VL: B1 VL with V3L, Y37F
notes: as for B1
B9: P13B02-01 (antibody, IgG1, V domains shown)
VH: B1 VH with I70M, A72R, S76T, N77S, T98R
VL: B1 VL with S71D, Y72F
notes: as for B1
B10: P13B02-11 (antibody, IgG1, V domains shown)
VH: B1 VH
VL: B1 VL with S71D, Y72F
notes: as for B1
B11: P13B02-14 (antibody, IgG1, V domains shown)
VH: B1 VH
VL: B1 VL with V3L, Y37F, L48W, I59V
notes: as for B1
B12: P13B02-08 (antibody, IgG1, V domains shown)
VH: B1 VH with S76T, N77S
VL: B1 VL with V3L, Y37F
notes: as for B1
B13: P13B02-20 (antibody, IgG1, V domains shown)
VH: B1 VH with L4M, V5K, K23T
VL: B1 VL with V3L, S22T, Y37F, A44S, L48W, I59V
notes: as for B1
B14: P13B02-03 (antibody, IgG1, V domains shown)
VH: B1 VH with I70M, A72R, S76T, N77S, T98R
VL: B1 VL with V3L, Y37F
notes: as for B1
B15: P13B02-10 (antibody, IgG1, V domains shown)
VH: B1 VH with S76T, N77S
VL: B1 VL with V3L, S22T, Y37F, A44S, L48W, I59V
notes: as for B1
B16: P13B02-13 (antibody, IgG1, V domains shown)
VH: B1 VH
VL: B1 VL with V3L, Y37F
notes: as for B1
B17: P13B02-05 (antibody, IgG1, V domains shown)
VH: B1 VH with I70M, A72R, S76T, N77S, T98R
VL: B1 VL with V3L, S22T, Y37F, A44S, L48W, I59V
notes: as for B1

biological target: T1, recombinant human LAG-3; test: surface plasmon resonance (data not shown)

Binding result, binds:
B1, B2, B3, B4, B5, B6, B7, B8, B9, B10, B11, B12, B13, B14, B15, B16, B17
